Consider one substance from paper PMC11208146, “Molecular basis for transposase activation by a dedicated AAA+ ATPase” (Nature, 2024).

Broadly, the stoichiometry N is a count of units in the complex or per binding partner.

The assay addresses IstA transposase, wild type, full length (IS5376, Geobacillus stearothermophilus) (Geobacillus stearothermophilus). Nature of the assay: cryo-EM structure; IstA pre-incubated with strand-transfer-complex DNA (3.3:1), then IstB E167Q (5:1 to IstA), 37 °C; 20 mM HEPES pH 7.5, 150 mM NaCl, 5 mM MgCl2, 1 mM ATP, 1 mM DTT; 3.6 Å.

Take “IstA transposase, wild type, full length (IS5376, Geobacillus stearothermophilus) (enzyme)”: the stoichiometry N is 4.
